Literature values as cited in article PMC6627431.

How the values were obtained:
KV1.1 = KV1.1 (UniProt Q09470)
KV1.3 = KV1.3 (UniProt P22001)
KV1.2 = KV1.2 (UniProt P16389)
UniProt P16389, sequence (P16389 whole entry): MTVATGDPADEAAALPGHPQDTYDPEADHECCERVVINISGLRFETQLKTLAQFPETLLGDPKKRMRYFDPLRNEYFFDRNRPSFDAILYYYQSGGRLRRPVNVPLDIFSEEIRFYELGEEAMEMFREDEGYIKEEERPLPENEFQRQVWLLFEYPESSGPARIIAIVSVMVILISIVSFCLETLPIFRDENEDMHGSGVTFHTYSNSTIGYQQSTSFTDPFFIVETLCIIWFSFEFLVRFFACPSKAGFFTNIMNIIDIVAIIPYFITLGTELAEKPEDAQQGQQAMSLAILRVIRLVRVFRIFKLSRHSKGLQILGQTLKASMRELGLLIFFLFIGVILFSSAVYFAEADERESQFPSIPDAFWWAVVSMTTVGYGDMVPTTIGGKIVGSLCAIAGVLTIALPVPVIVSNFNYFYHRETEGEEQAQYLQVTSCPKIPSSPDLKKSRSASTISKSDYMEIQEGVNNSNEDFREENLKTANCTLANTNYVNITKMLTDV

UniProt Q09470, sequence (Q09470 whole entry): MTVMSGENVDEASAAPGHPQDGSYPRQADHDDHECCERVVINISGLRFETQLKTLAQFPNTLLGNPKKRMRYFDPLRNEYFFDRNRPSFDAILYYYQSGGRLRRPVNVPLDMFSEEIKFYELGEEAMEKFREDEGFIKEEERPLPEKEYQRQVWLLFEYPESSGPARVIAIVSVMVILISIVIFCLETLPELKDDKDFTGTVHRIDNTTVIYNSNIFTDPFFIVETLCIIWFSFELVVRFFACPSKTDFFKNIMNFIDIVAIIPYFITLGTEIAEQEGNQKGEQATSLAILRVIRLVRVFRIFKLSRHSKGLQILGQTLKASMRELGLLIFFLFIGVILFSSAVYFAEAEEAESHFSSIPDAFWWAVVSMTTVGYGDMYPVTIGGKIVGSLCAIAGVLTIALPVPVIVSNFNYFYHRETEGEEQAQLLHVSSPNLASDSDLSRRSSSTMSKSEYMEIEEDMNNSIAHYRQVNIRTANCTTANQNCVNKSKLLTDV
UniProt P22001, sequence (P22001 whole entry): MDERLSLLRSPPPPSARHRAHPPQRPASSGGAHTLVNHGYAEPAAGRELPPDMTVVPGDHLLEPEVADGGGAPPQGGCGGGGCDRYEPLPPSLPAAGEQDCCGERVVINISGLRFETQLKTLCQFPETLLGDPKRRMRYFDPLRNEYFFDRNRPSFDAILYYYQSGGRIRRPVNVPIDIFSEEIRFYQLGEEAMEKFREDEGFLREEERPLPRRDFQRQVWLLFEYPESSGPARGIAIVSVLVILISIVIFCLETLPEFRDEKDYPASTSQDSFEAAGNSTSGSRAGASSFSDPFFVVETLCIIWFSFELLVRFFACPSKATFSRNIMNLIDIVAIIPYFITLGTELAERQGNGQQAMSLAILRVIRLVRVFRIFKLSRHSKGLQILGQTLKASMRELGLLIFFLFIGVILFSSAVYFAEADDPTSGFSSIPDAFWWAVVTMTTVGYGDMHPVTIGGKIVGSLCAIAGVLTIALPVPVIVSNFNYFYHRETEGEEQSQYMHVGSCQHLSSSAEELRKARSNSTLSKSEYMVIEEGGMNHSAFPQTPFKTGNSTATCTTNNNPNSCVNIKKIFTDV

Substance: BgK (from UniProt P29186)
- Kd (KV1.1): 6 nM
- Kd (KV1.3): 10 nM
- Kd (KV1.2): 15 nM
